# B1: C1orf137 (parent)
# chain: LPQETNLTLKVCKPQAPQKLDPTL
# B2: PRAME (parent)
# chain: KKLKIFAMPMQDIKMILKMVQLDS
# Variants of: B1
# Assay: protein stability index of a GFP-peptide fusion (GPS, HEK-293T) (PSI 1-6); higher = more stable
# Conditions: c terminus: a fixed tail appended
# 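Further: lentivirally expressed fusions sorted by FACS into six bins by GFP to DsRed ratio, PSI derived from sequencing read proportions per bin multiplied by bin number.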
row,Variant,protein stability index
1,LFQETNLTLKVCKPQAPQKLDPTL,2.85
2,LSQETNLTLKVCKPQAPQKLDPTL,2.8
3,LAQETNLTLKVCKPQAPQKLDPTL,3.84
4,LCQETNLTLKVCKPQAPQKLDPTL,3.27
5,LYQETNLTLKVCKPQAPQKLDPTL,3.14
6,LHQETNLTLKVCKPQAPQKLDPTL,3.5
7,LVQETNLTLKVCKPQAPQKLDPTL,3.13
8,LWQETNLTLKVCKPQAPQKLDPTL,2.16
9,LKQETNLTLKVCKPQAPQKLDPTL,3.06
10,LDQETNLTLKVCKPQAPQKLDPTL,4.3
11,LLQETNLTLKVCKPQAPQKLDPTL,2.65
12,LTQETNLTLKVCKPQAPQKLDPTL,3.92
13,LMQETNLTLKVCKPQAPQKLDPTL,2.23
14,LNQETNLTLKVCKPQAPQKLDPTL,3.46
15,LQQETNLTLKVCKPQAPQKLDPTL,3.76
16,LRQETNLTLKVCKPQAPQKLDPTL,2.88
17,LEQETNLTLKVCKPQAPQKLDPTL,4.18
18,LGQETNLTLKVCKPQAPQKLDPTL,3.79
19,LIQETNLTLKVCKPQAPQKLDPTL,3.49
20,LPYETNLTLKVCKPQAPQKLDPTL,3.34
21,LPIETNLTLKVCKPQAPQKLDPTL,3.1
22,LPLETNLTLKVCKPQAPQKLDPTL,3.58
23,LPVETNLTLKVCKPQAPQKLDPTL,3.73
24,LPKETNLTLKVCKPQAPQKLDPTL,3.96
25,LPTETNLTLKVCKPQAPQKLDPTL,4.17

row,Variant,protein stability index
1,LPPETNLTLKVCKPQAPQKLDPTL,3.79
2,LPMETNLTLKVCKPQAPQKLDPTL,3.6
3,LPFETNLTLKVCKPQAPQKLDPTL,3.08
4,LPCETNLTLKVCKPQAPQKLDPTL,4.12
5,LPNETNLTLKVCKPQAPQKLDPTL,3.53
6,LPEETNLTLKVCKPQAPQKLDPTL,4.59
7,LPAETNLTLKVCKPQAPQKLDPTL,4.3
8,LPHETNLTLKVCKPQAPQKLDPTL,3.6
9,LPRETNLTLKVCKPQAPQKLDPTL,3.29
10,LPDETNLTLKVCKPQAPQKLDPTL,4.33
11,LPWETNLTLKVCKPQAPQKLDPTL,2.54
12,LPGETNLTLKVCKPQAPQKLDPTL,3.63
13,LPSETNLTLKVCKPQAPQKLDPTL,3.8
14,LPQITNLTLKVCKPQAPQKLDPTL,2.51
15,LPQKTNLTLKVCKPQAPQKLDPTL,3.46
16,LPQCTNLTLKVCKPQAPQKLDPTL,2.37
17,LPQQTNLTLKVCKPQAPQKLDPTL,3.74
18,LPQPTNLTLKVCKPQAPQKLDPTL,4.22
19,LPQATNLTLKVCKPQAPQKLDPTL,3.77
20,LPQMTNLTLKVCKPQAPQKLDPTL,2.82
21,LPQDTNLTLKVCKPQAPQKLDPTL,3.7
22,LPQRTNLTLKVCKPQAPQKLDPTL,2.64
23,LPQLTNLTLKVCKPQAPQKLDPTL,2.6
24,LPQFTNLTLKVCKPQAPQKLDPTL,2.44
25,LPQNTNLTLKVCKPQAPQKLDPTL,3.94

row,Variant,protein stability index
1,LPQWTNLTLKVCKPQAPQKLDPTL,2.32
2,LPQGTNLTLKVCKPQAPQKLDPTL,3.36
3,LPQVTNLTLKVCKPQAPQKLDPTL,3.03
4,LPQSTNLTLKVCKPQAPQKLDPTL,3.12
5,LPQTTNLTLKVCKPQAPQKLDPTL,3.59
6,LPQHTNLTLKVCKPQAPQKLDPTL,3.08
7,WPQETNLTLKVCKPQAPQKLDPTL,3.98
8,CPQETNLTLKVCKPQAPQKLDPTL,4
9,RPQETNLTLKVCKPQAPQKLDPTL,3.48
10,SPQETNLTLKVCKPQAPQKLDPTL,4.46
11,IPQETNLTLKVCKPQAPQKLDPTL,3.97
12,FPQETNLTLKVCKPQAPQKLDPTL,2.79
13,QPQETNLTLKVCKPQAPQKLDPTL,4.38
14,APQETNLTLKVCKPQAPQKLDPTL,4.06
15,TPQETNLTLKVCKPQAPQKLDPTL,4.44
16,NPQETNLTLKVCKPQAPQKLDPTL,3.77
17,MPQETNLTLKVCKPQAPQKLDPTL,4.04
18,PPQETNLTLKVCKPQAPQKLDPTL,4.65
19,HPQETNLTLKVCKPQAPQKLDPTL,3.36
20,KPQETNLTLKVCKPQAPQKLDPTL,3.93
21,EPQETNLTLKVCKPQAPQKLDPTL,4.8
22,VPQETNLTLKVCKPQAPQKLDPTL,4.34
23,DPQETNLTLKVCKPQAPQKLDPTL,4.73
24,YPQETNLTLKVCKPQAPQKLDPTL,3.04

# Variants of: B2
# Assay: as above
# Conditions: c terminus: a fixed tail appended
row,Variant,protein stability index
1,KKLKIFAMPMQDIKMILKSVQLDS,2.44
2,KKLKIFAMPMQDIKMILKPVQLDS,1.69
3,KKLKIFAMPMQDIKMILKNVQLDS,2.21
4,KKLKIFAMPMQDIKMILKHVQLDS,2.59
5,KKLKIFAMPMQDIKMILKGVQLDS,2.15
6,KKLKIFAMPMQDIKMILKQVQLDS,2.89
7,KKLKIFAMPMQDIKMILKIVQLDS,2.81
8,KKLKIFAMPMQDIKMILKTVQLDS,3.38
9,KKLKIFAMPMQDIKMILKFVQLDS,2.46
10,KKLKIFAMPMQDIKMILKWVQLDS,2.46
11,KKLKIFAMPMQDIKMILKCVQLDS,3.53
12,KKLKIFAMPMQDIKMILKDVQLDS,2.13
13,KKLKIFAMPMQDIKMILKMVQLDN,2.87
14,KKLKIFAMPMQDIKMILKMVQLDR,3.56
15,KKLKIFAMPMQDIKMILKMVQLDG,2.47
16,KKLKIFAMPMQDIKMILKMVQLDI,2.49
17,KKLKIFAMPMQDIKMILKMVQLDA,3.45
18,KKLKIFAMPMQDIKMILKMVQLDM,3.73
19,KKLKIFAMPMQDIKMILKMVQLDP,1.9
20,KKLKIFAMPMQDIKMILKMVQLDH,2.91
21,KKLKIFAMPMQDIKMILKMVQLDF,2.85
22,KKLKIFAMPMQDIKMILKMVQLDV,2.5
23,KKLKIFAMPMQDIKMILKMVQLDK,2.42

row,Variant,protein stability index
1,KKLKIFAMPMQDIKMILKMVQLDD,4.26
2,KKLKIFAMPMQDIKMILKMVQLDE,4.07
3,KKLKIFAMPMQDIKMILKMVQLDQ,2.02
4,KKLKIFAMPMQDIKMILKMVQLDT,2.39
5,KKLKIFAMPMQDIKMILKMVQLLS,3.12
6,KKLKIFAMPMQDIKMILKMVQLES,3.61
7,KKLKIFAMPMQDIKMILKMVQLPS,3.05
8,KKLKIFAMPMQDIKMILKMVQLTS,2.86
9,KKLKIFAMPMQDIKMILKMVQLNS,2.18
10,KKLKIFAMPMQDIKMILKMVQLFS,3.54
11,KKLKIFAMPMQDIKMILKMVQLIS,2.33
12,KKLKIFAMPMQDIKMILKMVQLSS,3.79
13,KKLKIFAMPMQDIKMILKMVQLKS,2.4
14,KKLKIFAMPMQDIKMILKMVQLWS,2.58
15,KKLKIFAMPMQDIKMILKMVQLMS,1.94
16,KKLKIFAMPMQDIKMILKMVILDS,2.69
17,KKLKIFAMPMQDIKMILKMVGLDS,3.64
18,KKLKIFAMPMQDIKMILKMVWLDS,1.98
19,KKLKIFAMPMQDIKMILKMVELDS,2.03
20,KKLKIFAMPMQDIKMILKMVCLDS,3.19
21,KKLKIFAMPMQDIKMILKMVPLDS,3.91
22,KKLKIFAMPMQDIKMILKMVKLDS,3.17
23,KKLKIFAMPMQDIKMILKMVNLDS,2.82

row,Variant,protein stability index
1,KKLKIFAMPMQDIKMILKMVTLDS,3.42
2,KKLKIFAMPMQDIKMILKMVALDS,3.36
3,KKLKIFAMPMQDIKMILKMVMLDS,2.33
4,KKLKIFAMPMQDIKMILKMYQLDS,2.21
5,KKLKIFAMPMQDIKMILKMHQLDS,3.51
6,KKLKIFAMPMQDIKMILKMFQLDS,2.98
7,KKLKIFAMPMQDIKMILKMQQLDS,2.9
8,KKLKIFAMPMQDIKMILKMAQLDS,3.51
9,KKLKIFAMPMQDIKMILKMIQLDS,4.22
10,KKLKIFAMPMQDIKMILKMCQLDS,2.55
11,KKLKIFAMPMQDIKMILKMEQLDS,2.33
12,KKLKIFAMPMQDIKMILKMNQLDS,2.32
13,KKLKIFAMPMQDIKMILKMKQLDS,4.07
14,KKLKIFAMPMQDIKMILKMRQLDS,2.37
15,KKLKIFAMPMQDIKMILKMSQLDS,2.01
16,KKLKIFAMPMQDIKMILKMTQLDS,3.9
17,KKLKIFAMPMQDIKMILKMPQLDS,2.22
18,KKLKIFAMPMQDIKMILKMDQLDS,2.19
19,KKLKIFAMPMQDIKMILKMVQIDS,3.88
20,KKLKIFAMPMQDIKMILKMVQRDS,2.83
21,KKLKIFAMPMQDIKMILKMVQMDS,1.42
22,KKLKIFAMPMQDIKMILKMVQDDS,4.71
23,KKLKIFAMPMQDIKMILKMVQADS,1.13

row,Variant,protein stability index
1,KKLKIFAMPMQDIKMILKMVQKDS,1.95
2,KKLKIFAMPMQDIKMILKMVQCDS,1.88
3,KKLKIFAMPMQDIKMILKMVQHDS,3.28
4,KKLKIFAMPMQDIKMILKMVQVDS,3.63
5,KKLKIFAMPMQDIKMILKMVQYDS,2.57
6,KKLKIFAMPMQDIKMILKMVQPDS,3.45
7,KKLKIFAMPMQDIKMILKMVQQDS,2.51
8,KKLKIFAMPMQDIKMVLKMVQLDS,2.48
9,KKLKIFAMPMQDIKMYLKMVQLDS,3.04
10,KKLKIFAMPMQDIKMWLKMVQLDS,2.79
11,KKLKIFAMPMQDIKMIPKMVQLDS,2.27
12,KKLKIFAMPMQDIKMITKMVQLDS,1.12
13,KKLKIFAMPMQDIKMICKMVQLDS,2.73
14,KKLKIFAMPMQDIKMIEKMVQLDS,2.04
15,KKLKIFAMPMQDIKMIDKMVQLDS,1.88
16,KKLKIFAMPMQDIKMISKMVQLDS,2.1
17,KKLKIFAMPMQDIKMIGKMVQLDS,1.71
18,KKLKIFAMPMQDIKMINKMVQLDS,1.5
19,KKLKIFAMPMQDIKMIYKMVQLDS,3.8
20,KKLKIFAMPMQDIKMIAKMVQLDS,2.66
21,KKLKIFAMPMQDIKMIRKMVQLDS,1.75
22,KKLKIFAMPMQDIKMIIKMVQLDS,2.19
23,KKLKIFAMPMQDIKMIQKMVQLDS,1.62

row,Variant,protein stability index
1,KKLKIFAMPMQDIKMIWKMVQLDS,2.06
2,KKLKIFAMPMQDIKMIMKMVQLDS,2.59
3,KKLKIFAMPMQDIKMIKKMVQLDS,2.11
4,KKLKIFAMPMQDIKMIHKMVQLDS,2.39
5,KKLKIFAMPMQDIKMIVKMVQLDS,2.64
6,KKLKIFAMPMQDIKMILQMVQLDS,2.18
7,KKLKIFAMPMQDIKMILWMVQLDS,3.98
8,KKLKIFAMPMQDIKMILSMVQLDS,2.19
9,KKLKIFAMPMQDIKMILFMVQLDS,3.27
10,KKLKIFAMPMQDIKMILHMVQLDS,2.65
11,KKLKIFAMPMQDIKMILMMVQLDS,2.67
12,KKLKIFAMPMQDIKMILDMVQLDS,2.22
13,KKLKIFAMPMQDIKMILRMVQLDS,3.54
14,KKLKIFAMPMQDIKMILYMVQLDS,2.62
15,KKLKIFAMPMQDIKMILLMVQLDS,3.04
16,KKLKIFAMPMQDIKMILTMVQLDS,2.42
17,KKLKIFAMPMQDIKMILEMVQLDS,3.69
18,KKLKIFAMPMQDIKMILGMVQLDS,3.49
19,KKLKIFAMPMQDIKMILNMVQLDS,1.99
20,KKLKIFAMPMQDIKMILVMVQLDS,4.3
21,KKLKIFAMPMQDIKMILPMVQLDS,1.56
22,KKLKIFAMPMQDIKMILAMVQLDS,3.37

# Source: the supplement of paper PMC10567573
